Measurements from patent US20230407327A1, “INDUCIBLE PROMOTER FOR VIRAL VECTOR PRODUCTION” (ASKLEPIOS BIOPHARMACEUTICAL, INC., priority 2020, published 2023).

B1: Synp-RTV-016: synthetic hypoxia-inducible promoter, SEQ ID NO: 1; 6 HRE2 and CMV minimal promoter (nucleic acid)
DNA: CTGCACGTAGATGATGCGTAGCTAGTAGTCTGCACGTAGATGATGCGTAGCTAGTAGTCTGCACGTAGATGATGCGTAGCTAGTAGTCTGCACGTAGATGATGCGTAGCTAGTAGTCTGCACGTAGATGATGCGTAGCTAGTAGTCTGCACGTAGTAGTCGTATGCTGATGCGCAGTTAGCGTAGCTGAGGTACCGTCGACGATATCGGATCCAGGTCTATATAAGCAGAGCTCGTTTAGTGAACCGTCAGATCGCCTAGATACGCCATCCACGCTGTTTTGACCTCCATAGAAGATCGCCACC
B2: Synp-RTV-019: synthetic forskolin-inducible promoter, SEQ ID NO: 5; 3×ATF6, 4× AP1 and 3× HIF TFBS and a CMV-MP (nucleic acid)
DNA: TGACGTGCTGATGATGCGTAGCTAGTAGTTGACGTGCTGATGATGCGTAGCTAGTAGTTGACGTGCTGATGATGCGTAGCTAGTAGTTGAGTCAGATGATGCGTAGCTAGTAGTTGAGTCAGATGATGCGTAGCTAGTAGTTGAGTCAGATGATGCGTAGCTAGTAGTTGAGTCAGATGATGCGTAGCTAGTAGTCTGCACGTAGATGATGCGTAGCTAGTAGTCTGCACGTAGATGATGCGTAGCTAGTAGTCTGCACGTAGATGATGCGTAGCTAGTAGTGCAGTTAGCGTAGCTGAGGTACCGTCGACGATATCGGATCCAGGTCTATATAAGCAGAGCTCGTTTAGTGAACCGTCAGATCGCCTAGATACGCCATCCACGCTGTTTTGACCTCCATAGAAGATCGCCACC
B3: Synp-HYBT: synthetic hypoxia-inducible promoter, SEQ ID NO: 2; 4 HRE3 and a YB-TATA minimal promoter (nucleic acid)
DNA: ACCTTGAGTACGTGCGTCTCTGCACGTATGGCGATTAAGACCTTGAGTACGTGCGTCTCTGCACGTATGGCGATTAAGACCTTGAGTACGTGCGTCTCTGCACGTATGGCGATTAAGACCTTGAGTACGTGCGTCTCTGCACGTATGGCGATTAATCCATATGCTCTAGAGGGTATATAATGGGGGCCA
B4: Synp-HV3C: synthetic hypoxia-inducible promoter, SEQ ID NO: 3; 4 HRE3 and CMV minimal promoter (nucleic acid)
DNA: ACCTTGAGTACGTGCGTCTCTGCACGTATGGCGATTAAGACCTTGAGTACGTGCGTCTCTGCACGTATGGCGATTAAGACCTTGAGTACGTGCGTCTCTGCACGTATGGCGATTAAGACCTTGAGTACGTGCGTCTCTGCACGTATGGCGATTAATCCATATGCAGGTCTATATAAGCAGAGCTCGTTTAGTGAACCGTCAGATCGCCTAGATACGCCATCCACGCTGTTTTGACCTCCATAGAAGATCGCCACC
B5: Synp-RTV-017: synthetic forskolin-inducible promoter, SEQ ID NO: 4; 8× AP1 TFBS and a CMV-MP (nucleic acid)
DNA: TGAGTCAGATGATGCGTAGCTAGTAGTTGAGTCAGATGATGCGTAGCTAGTAGTTGAGTCAGATGATGCGTAGCTAGTAGTTGAGTCAGATGATGCGTAGCTAGTAGTTGAGTCAGATGATGCGTAGCTAGTAGTTGAGTCAGATGATGCGTAGCTAGTAGTTGAGTCAGATGATGCGTAGCTAGTAGTTGAGTCAGTAGTCGTATGCTGATGCGCAGTTAGCGTAGCTGAGGTACCGTCGACGATATCGGATCCAGGTCTATATAAGCAGAGCTCGTTTAGTGAACCGTCAGATCGCCTAGATACGCCATCCACGCTGTTTTGACCTCCATAGAAGATCGCCACC
B6: Synp-FORCYB1: synthetic forskolin-inducible promoter, SEQ ID NO: 6; 5× cAMPRE and 4× AP1 TFBS and YB-TATA-MP (nucleic acid)
DNA: TGACGTCACGATTACCATTGACGTCACGATTACCATTGACGTCACGATTACCATTGACGTCACGATTACCATTGACGTCAGCGATTAAGATGACTCAGCGATTAAGATGACTCAGCGATTAAGATGACTCAGCGATTAAGATGACTCAGCGATTAATCCATATGCTCTAGAGGGTATATAATGGGGGCCACTAGTCTACTACCAGAAAGCTTGGTACCGAGCTCGGATCCAGCCACC

How the values were obtained:
HEK293-F cells = test: Luciferase expression from hypoxia-inducible promoters in transiently transfected HEK293-F cells; format: cell-based, human; details: cells placed in hypoxia at 0 hours; FIG. 3
Experimental: 40 ml of cells are grown in a 250 ml vented Erlenmeyer flask (Sigma-Aldrich CLS431144) at 37° C., 20% O2, 8% CO2 with agitation at 100 rpm. Cells are seeded as described in the manufacturer's instructions (300,000 cells/ml). HEK293-F are obtained from Thermofisher, R79007.
One day before transfection, the cells are counted using a haemocytometer and split to 500,000 cells/ml.
On the day of transfection, the cells are seeded to 1,000,000 cells/ml in 500 µl of appropriate medium (Freestyle 293 expression medium, 12338002) in a 24 well plate. […] of DNA per well is then added to 10 μl of OptiMem medium (Thermofisher; 11058021) and incubated for 5 minutes at room temperature.
Concurrently, 0.625 μl of Max reagent (Thermofisher, 16447100) is made up to […] by addition of OptiMem and incubated for 5 minutes at room temperature. After this incubation, both mixes are added to the same tube and incubated at room temperature for 25-30 minutes. The DNA/Max reagent mix (20 μl/well) is then added directly to the cells and the cells incubated at 37° C., 8% CO2 with agitation at 100 rpm. […]
After transfection the cells are incubated for 24 hrs in normoxia conditions (20% oxygen) before being switched to a gas mix of 5% oxygen, 10% carbon dioxide and 85% nitrogen (hypoxia). […] Induction of the promoters is assessed by using luciferase activity after 3, 5 and 24 hrs in hypoxia.
(§1) Luciferase activity is measured using LARII (Dual Luciferase Reporter 1000 assay system, Promega, E1980).
Media is removed from the cells at the respective time point (0, 3, 5, 24 hrs after induction). […] 10 μl of supernatant is pipetted into white 96-well plate and luminescence measured by addition of 50 μl of LARII substrate.
β-galactosidase activity is measured as per manufacturer's instructions (Mammalian PGalactosidase Assay Kit, 75707/75710, Thermo Scientific) using 25 µl of lysate. […] The mixture is incubated at 37° C. for 30 min and absorbance measured at 405 nm.
(§2) Luciferase readouts are normalised to β-galactosidase to produce normalised relative luminometer units (RLUs).

HEK293-T cells = test: Luciferase expression from hypoxia-inducible promoters in transiently transfected HEK293-T cells; format: cell-based, human; details: for luciferase activity in normoxia: normoxic conditions, FIG. 4
Experimental: HEK293-T are seeded at a density of 20%. Once they reached a confluence between 60 and 80%, the media is changed with DMEM (#21885-025—Thermo Scientific) supplemented with 10% FBS (Gibco, 26140). After 3 hours, the cells are transfected by a transfection mix. The transfection mix is prepared by adding DNA (2 μg per 6 well plate) and PEI 25 kDA (#23966-1—Polyscience) in a ratio of 1:3 in sterile DPBS (#14190169—ThermoFisher Scientific). After mixing, the transfection mix is incubated at room temperature for 30 minutes and then added directly to the cells. After 16 to 18 h post transfection, the media is changed to DMEM+2% FBS. The transfected DNA is one of the vectors where the promoter construct (Synp-RTV-016, Synp-HYBT and Synp-HV3C) or a control promoter (CMV-IE) are used to drive luciferase expression and P-galactosidase containing pcDNA6 plasmid. The β-galactosidase containing plasmid is used as internal control for transfection efficiency (Thermofisher, V22020).
After transfection the cells are incubated for 24 hrs in normoxic conditions (20% oxygen). Induction of the promoters is assessed by using luciferase activity after 24 hrs in normoxia or hypoxia (5% oxygen, 10% carbon dioxide and 85% nitrogen). Hypoxia is achieved by gas displacement in a sealed hypoxia chamber.
as §1
Media is removed from the cells at the respective time point (0, 3, 5, 24 hrs after induction). The cells are washed once in 300 μl of DPBS. Cells are lysed by adding 100 μl of passive lysis buffer to the cells and incubation with rocking for 15 minutes. The cell debris is pelleted by centrifugation of the plate at max speed in a benchtop centrifuge for 1 min. 10 μl of supernatant is pipetted into white 96-well plate and luminescence measured by addition of 50 μl of LARII substrate.
β-galactosidase activity is measured as per manufacturer's instructions (Mammalian PGalactosidase Assay Kit, 75707/75710, Thermo Scientific) using 25 µl of lysate. 25 μl of lysate is transferred into a microplate well and mixed with 25 μl of β-galactosidase Assay Reagent, equilibrated to room temperature. The mixture is incubated at 37° C. for 30 min and absorbance measured at 405 nm.
as §2

Huh7 (liver) = test: Luciferase expression from forskolin-inducible promoters in Huh7 cells; format: cell-based, human; details: for luciferase activity after induction, promoter expressed from an AAV vector: 20 μM forskolin or 7.2 μM NKH477; for luciferase activity after induction, promoter expressed from an AAV vector / luciferase activity without induction, promoter expressed from an AAV vector: FIG. 8; for luciferase activity after induction: 20 μM forskolin; for luciferase activity after induction / luciferase activity without induction: FIG. 6; for luciferase activity without induction, promoter expressed from an AAV vector: AAV vector containing ITRs
Experimental: Luciferase activity was measured without induction and after induction with 20 μM forskolin or 7.2 μM NKH477.

C2C12 (muscle) cells = test: Luciferase expression from forskolin-inducible promoter in C2C12 cells; format: cell-based, mouse; details: FIG. 7
Text: CMV-IE expression was not analyzed under induced conditions, and thus no result is shown in the graph.

Molecule	luciferase activity over time in hypoxia (HEK293-F cells)	luciferase expression / inducibility after 24 hours in hypoxia versus normoxia (HEK293-T cells)	luciferase activity in normoxia (HEK293-T cells)	luciferase activity after induction, promoter expressed from an AAV vector (Huh7 (liver))	luciferase activity after induction (Huh7 (liver))	luciferase activity without induction, promoter expressed from an AAV vector (Huh7 (liver))	luciferase activity without induction (Huh7 (liver))	luciferase activity after induction (C2C12 (muscle) cells; 20 μM forskolin)	luciferase activity without induction (C2C12 (muscle) cells)
B1	increase in luciferase activity with time	lowest	almost no luciferase activity	–	–	–	–	–	–
B2	–	–	–	high activity	high activity	low background activity	low background activity	high activity	low background activity
B3	increase in luciferase activity with time	induced to a varying level	almost no luciferase activity	–	–	–	–	–	–
B4	increase in luciferase activity with time	highest	almost no luciferase activity	–	–	–	–	–	–
B5	–	–	–	high activity	high activity	low background activity	low background activity	–	–
B6	–	–	–	high activity	–	low background activity	–	–	–
